T1: PAN (…) (Arabidopsis thaliana, UniProt Q9SX27 1-452)
T1 sequence: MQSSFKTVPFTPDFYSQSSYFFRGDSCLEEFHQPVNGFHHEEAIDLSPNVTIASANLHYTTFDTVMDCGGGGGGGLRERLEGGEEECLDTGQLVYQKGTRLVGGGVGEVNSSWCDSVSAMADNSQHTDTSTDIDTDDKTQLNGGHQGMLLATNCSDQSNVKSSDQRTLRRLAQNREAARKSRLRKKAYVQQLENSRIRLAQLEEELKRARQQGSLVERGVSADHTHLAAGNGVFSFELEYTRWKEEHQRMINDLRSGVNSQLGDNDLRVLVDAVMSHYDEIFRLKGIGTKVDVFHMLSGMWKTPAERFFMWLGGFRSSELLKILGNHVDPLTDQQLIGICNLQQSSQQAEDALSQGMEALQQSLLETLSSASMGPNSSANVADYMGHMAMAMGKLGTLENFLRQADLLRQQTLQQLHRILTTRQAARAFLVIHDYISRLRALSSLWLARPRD

T2: PAN (…);ROXY1 (Arabidopsis thaliana;Arabidopsis …, UniProt Q9SX27;Q96305 1-452;1-136, |)
T2 sequence 1: T1 sequence
T2 sequence 2: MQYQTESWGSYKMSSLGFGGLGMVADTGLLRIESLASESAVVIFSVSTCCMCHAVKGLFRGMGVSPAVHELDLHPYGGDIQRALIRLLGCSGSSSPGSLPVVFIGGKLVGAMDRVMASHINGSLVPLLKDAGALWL

T3: PAN (…);MpROXY2 (Arabidopsis thaliana;Marchantia …, UniProt Q9SX27;A0A2R6WT88 1-452;1-179, |)
T3 sequence 1: T1 sequence
T3 sequence 2: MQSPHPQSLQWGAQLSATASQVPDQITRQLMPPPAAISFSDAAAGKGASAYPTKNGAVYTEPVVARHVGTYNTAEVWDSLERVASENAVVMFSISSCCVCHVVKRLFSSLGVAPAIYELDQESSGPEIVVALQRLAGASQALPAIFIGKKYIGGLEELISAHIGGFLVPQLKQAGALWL

T4: MpROXY2 (Marchantia polymorpha (ssp. ruderalis, …, UniProt A0A2R6WT88 1-179))
T4 sequence: T3 sequence 2

B1: as-1-like (dsDNA)
DNA 1: CTACGTCACTATTTTACTTACGTCATAG
DNA 2: CTATGACGTAAGTAAAATAGTGACGTAG

Columns and labels:
[1] = biological target: mTRQ2-MpTGA (Marchantia polymorpha); test: FRET or BRET; FRET-FLIM; 2in1 vector, donor mTRQ2 on MpTGA, acceptor mVENUS on MpROXY; 40 nuclei of N. benthamiana leaves; mono- or biexponential decay of the donor
PAN (…) = biological target: T1, PAN (…); test: EMSA; Redox EMSA per Gutsche & Zachgo 2016 (buffer, salt, pH, temperature not stated); 0.9 mM DTT (red) or 2 mM diamide (ox); 500 ng recombinant protein per reaction; native gel; settings: tags: N-terminal MBP (per Methods), chain copies: 2, label: 5' 6-FAM, blunt
PAN (…);ROXY1 = biological target: T2, PAN (…);ROXY1; test: EMSA supershift; Redox EMSA per Gutsche & Zachgo 2016 (buffer, salt, pH, temperature not stated); 0.9 mM DTT (red) or 2 mM diamide (ox); 500 ng recombinant protein per reaction; native gel; settings: tags: N-terminal MBP (per Methods);MBP, label: 5' 6-FAM, blunt
PAN (…);MpROXY2 = biological target: T3, PAN (…);MpROXY2; test: as above; settings: tags: N-terminal MBP (per Methods);N-terminal MBP, label: 5' 6-FAM, blunt
MpROXY2 = biological target: T4, MpROXY2; test: EMSA; 0.9 mM DTT or 2 mM diamide; Redox EMSA per Gutsche & Zachgo 2016 (buffer, salt, pH, temperature not stated); 0.9 mM DTT (red) or 2 mM diamide (ox); 500 ng recombinant protein per reaction; native gel; settings: tags: N-terminal MBP, label: 5' 6-FAM, blunt

| Molecule | reduced donor fluorescence lifetime (τDA) [1] | binding result (PAN (…)) | binding result (PAN (…);ROXY1) | binding result (PAN (…);MpROXY2) | binding result (MpROXY2) |
| --- | --- | --- | --- | --- | --- |
| mVENUS-MpROXY2 (natural protein) | < 2 ns |  |  |  |  |
| mVENUS-MpROXY1 (natural protein) | < 2 ns |  |  |  |  |
| B1 |  | binds | binds | binds | no binding |

Reference: article PMC6508501, “Conserved redox‐dependent DNA binding of ROXY glutaredoxins with TGA transcription factors”
